Blank lines part the entries; values can stand above or below the binder they belong to.
Legend:
[1] = target: T1, rHuman IGF-1 sR, (IGF-1 sR), CF (R&D Systems Cat#391-GR) (human, UniProt P08069 31-932); assay: MSD ECL multi-spot plate; Fab 2.0 nM; blank spot 316
T1 construct: also called insulin-like growth factor-1 soluble receptor; IGF-R1

[2] = target: T2, rHuman Erythropoietin R/Fc Chimera, CF (R&D Systems Cat#963-ER) (human, UniProt P19235 25-250); assay: as above
T2 construct: also called EPO R/Fc; Epo R; Fc part of the bought chimera not given
T2 sequence: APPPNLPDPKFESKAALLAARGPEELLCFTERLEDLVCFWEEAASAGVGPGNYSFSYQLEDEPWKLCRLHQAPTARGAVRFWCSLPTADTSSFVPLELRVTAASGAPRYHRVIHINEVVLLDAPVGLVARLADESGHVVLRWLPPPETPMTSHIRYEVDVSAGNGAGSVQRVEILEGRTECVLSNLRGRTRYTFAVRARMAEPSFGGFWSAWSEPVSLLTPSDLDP

[3] = target: T3, rHuman EGF R/Fc Chimera, CF (R&D Systems Cat#344-ER) (human, UniProt P00533 25-645); assay: as above
T3 construct: also called epidermal growth factor receptor; Fc part of the bought chimera not given

[4] = target: T4, rHuman Notch-1/Fc Chimera, CF (R&D Systems Cat#3647-TK) (human, UniProt P46531 19-526); assay: as above
T4 construct: Fc part of the bought chimera not given

[5] = target: T5, rHuman CD44/Fc Chimera, CF (R&D Systems Cat#3660-CD) (human, UniProt P16070 21-220); assay: as above
T5 construct: Fc part of the bought chimera not given

[6] = target: T6, rHuman Erythropoietin R/Fc Chimera, CF (R&D Systems Cat#963-ER) (human, UniProt P19235 25-250); assay: ECL (MSD Multi-Spot) binding assay, antigen spotted on plate; Fab 240 nM; blank spot 316
T6 construct: Bought Fc chimera; also called EPO R/Fc; Epo R; Fc part of the bought chimera not given
T6 sequence: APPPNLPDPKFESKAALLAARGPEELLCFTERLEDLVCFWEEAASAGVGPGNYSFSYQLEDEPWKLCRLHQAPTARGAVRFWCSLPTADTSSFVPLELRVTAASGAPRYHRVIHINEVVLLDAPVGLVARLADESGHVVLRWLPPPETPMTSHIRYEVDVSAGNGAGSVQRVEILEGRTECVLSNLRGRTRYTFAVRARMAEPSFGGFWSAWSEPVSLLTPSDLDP

[7] = target: T7, Recombinant Human DLL4 (R&D Systems Cat#1506-D4/CF) (human, UniProt Q9NR61 27-524); assay: as above
T7 construct: Bought recombinant protein; also called delta-like protein 4; rHuman DLL4

[8] = target: T8, rHuman Notch-1/Fc Chimera, CF (R&D Systems Cat#3647-TK) (human, UniProt P46531 19-526); assay: as above
T8 construct: Bought Fc chimera; Fc part of the bought chimera not given

[9] = target: T9, rHuman CD44/Fc Chimera, CF (R&D Systems Cat#3660-CD) (human, UniProt P16070 21-220); assay: as above
T9 construct: Bought Fc chimera; Fc part of the bought chimera not given

[10] = target: T10, rHuman P-Cadherin/Fc Chimera, CF (R&D Systems Cat#861-PC) (human, UniProt P22223 108-654); assay: as above
T10 construct: Bought Fc chimera; also called CDH3; Fc part of the bought chimera not given

[11] = target: T11, rHuman IGF-1 sR (insulin-like growth factor-1 soluble receptor), CF (R&D Systems Cat#391-GR) (human, UniProt P08069 31-932); assay: ECL (MSD multi-spot), antigen on plate, Fab 10 nM
T11 construct: Bought soluble receptor; also called IGF-R1

[12] = target: T12, rHuman P-Cadherin/Fc Chimera, CF (R&D Systems Cat#861-PC) (human, UniProt P22223 108-654); assay: ECL (MSD multi-spot), antigen on plate, Fab 10 nM
T12 construct: Bought Fc chimera; also called CDH3; not shown: Fc of the bought chimera

[13] = target: T13, rHuman Erythropoietin R/Fc Chimera, CF (R&D Systems Cat#963-ER) (human, UniProt P19235 25-250); assay: ECL (MSD multi-spot), antigen on plate, Fab 10 nM
T13 construct: Bought Fc chimera; also called EPO R/Fc; Epo R; not shown: Fc of the bought chimera
T13 sequence: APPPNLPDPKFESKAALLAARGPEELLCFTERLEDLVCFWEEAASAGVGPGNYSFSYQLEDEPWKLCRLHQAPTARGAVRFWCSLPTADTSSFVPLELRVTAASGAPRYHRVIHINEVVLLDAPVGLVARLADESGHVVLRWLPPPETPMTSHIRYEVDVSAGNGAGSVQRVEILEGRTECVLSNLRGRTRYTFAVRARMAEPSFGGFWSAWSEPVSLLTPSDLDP

[14] = target: T14, Recombinant Human DLL4 (R&D Systems Cat#1506-D4/CF) (human, UniProt Q9NR61 27-524); assay: ECL (MSD multi-spot), antigen on plate, Fab 10 nM
T14 construct: Bought recombinant protein; also called delta-like protein 4

[15] = target: T15, rHuman ErbB2/Fc Chimera, CF (R&D Systems Cat#1129-ER) (human, UniProt P04626 23-652); assay: ECL (MSD multi-spot), antigen on plate, Fab 10 nM
T15 construct: Bought Fc chimera; also called HER2/neu; not shown: Fc of the bought chimera

[16] = target: T16, rHuman EGF R/Fc Chimera, CF (R&D Systems Cat#344-ER) (human, UniProt P00533 25-645); assay: ECL (MSD multi-spot), antigen on plate, Fab 10 nM
T16 construct: Bought Fc chimera; also called ErbB-1; not shown: Fc of the bought chimera

[17] = target: T17, rHuman HGF R/c-MET/Fc Chimera, CF (R&D Systems Cat#358-MT/CF) (human, UniProt P08581 25-932); assay: ECL (MSD multi-spot), antigen on plate, Fab 10 nM
T17 construct: Bought Fc chimera; also called HGF R/Fc; not shown: Fc of the bought chimera

[18] = target: T18, rHuman Notch-1/Fc Chimera, CF (R&D Systems Cat#3647-TK) (human, UniProt P46531 19-526); assay: ECL (MSD multi-spot), antigen on plate, Fab 10 nM
T18 construct: Bought Fc chimera; not shown: Fc of the bought chimera

[19] = target: T19, rHuman CD44/Fc Chimera, CF (R&D Systems Cat#3660-CD) (human, UniProt P16070 21-220); assay: ECL (MSD multi-spot), antigen on plate, Fab 10 nM
T19 construct: Bought Fc chimera; not shown: Fc of the bought chimera
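Further: blank spot per well as comparator with Hit at signal to blank ratio of 4 or more.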

ECL signal [1]: 367 ECL signal | ECL signal [2]: 433 ECL signal | ECL signal [3]: 424 ECL signal | ECL signal [4]: 539 ECL signal | ECL signal [5]: 447 ECL signal
B1: Fab VH1-8_IGHD2-2*01_IGHJ6*01 & L12_IGKJ1*01 (Fab, V domains shown)
VH: QVQLVQSGAEVKKPGASVKVSCKASGYTFTSYDINWVRQATGQGLEWMGWMNPNSGNTGYAQKFQGRVTMTRNTSISTAYMELSSLRSEDTAVYYCARGGYCSSTSCYADYYYYYGMDVWGQGTTVTVSS
VL: not shown

ECL signal [6]: 478 | ECL signal [7]: 1270 | ECL signal [8]: 368 | ECL signal [9]: 470 | ECL signal [10]: 383
B2: Fab VH6-1_IGHD3-3*01_IGHJ4*01 & V4-3_IGLJ4*01 (Fab, V domains shown)
VH: QVQLQQSGPGLVKPSQTLSLTCAISGDSVSSNSAAWNWIRQSPSRGLEWLGRTYYRSKWYNDYAVSVKSRITINPDTSKNQFSLQLNSVTPEDTAVYYCAREYYDFWSGYYTDYFDYWGQGTLVTVSS
VL: QPVLTQPTSLSASPGASARLTCTLRSGINLGSYRIFWYQQKPESPPRYLLSYYSDSSKHQGSGVPSRFSGSKDASSNAGILVISGLQSEDEADYYCMIWHSSASFVFGGGTQLIIL
notes: Tested as a Fab made in E. coli; also called IGHV6-1*01

ECL signal [11]: 214 ECL signal | ECL signal [12]: 240 ECL signal | ECL signal [13]: 392 ECL signal | ECL signal [14]: 29800 ECL signal | ECL signal [15]: 303 ECL signal | ECL signal [16]: 297 ECL signal | ECL signal [17]: 271 ECL signal | ECL signal [18]: 388 ECL signal | ECL signal [19]: 352 ECL signal
B3: Fab VH1-46_IGHD6-6*01_IGHJ1*01_S102A_S103P_S104F & L6_IGKJ1*01_S31K (Fab, V domains shown)
VH: QVQLVQSGAEVKKPGASVKVSCKASGYTFTSYYMHWVRQAPGQGLEWMGIINPSGGSTSYAQKFQGRVTMTRDTSTSTVYMELSSLRSEDTAVYYCAREEYAPFSAEYFQHWGQGTLVTVSS
VL: EIVLTQSPATLSLSPGERATLSCRASQSVSKYLAWYQQKPGQAPRLLIYDASNRATGIPARFSGSGSGTDFTLTISSLEPEDFAVYYCQQRSNWPPWTFGQGTKVEIKR
notes: Fab

From US20120058906A1 (published 2012)
